Measured values published in patent US20160193299A1, “MODIFIED NUCLEOSIDE, NUCLEOTIDE, AND NUCLEIC ACID COMPOSITIONS” (Moderna Therapeutics, Inc., priority 2011, published 2016).

B1: Unmodified G-CSF mRNA: human G-CSF mRNA SEQ ID NO: 6 having no modifications (natural NTPs) (nucleic acid, listed as Homo sapiens)
chain: GGGAAAUAAGAGAGAAAAGAAGAGUAAGAAGAAAUAUAAGAGCCACCAUGGCCGGUCCCGCGACCCAAAGCCCCAUGAAACUUAUGGCCCUGCAGUUGCUGCUUUGGCACUCGGCCCUCUGGACAGUCCAAGAAGCGACUCCUCUCGGACCUGCCUCAUCGUUGCCGCAGUCAUUCCUUUUGAAGUGUCUGGAGCAGGUGCGAAAGAUUCAGGGCGAUGGAGCCGCACUCCAAGAGAAGCUCUGCGCGACAUACAAACUUUGCCAUCCCGAGGAGCUCGUACUGCUCGGGCACAGCUUGGGGAUUCCCUGGGCUCCUCUCUCGUCCUGUCCGUCGCAGGCUUUGCAGUUGGCAGGGUGCCUUUCCCAGCUCCACUCCGGUUUGUUCUUGUAUCAGGGACUGCUGCAAGCCCUUGAGGGAAUCUCGCCAGAAUUGGGCCCGACGCUGGACACGUUGCAGCUCGACGUGGCGGAUUUCGCAACAACCAUCUGGCAGCAGAUGGAGGAACUGGGGAUGGCACCCGCGCUGCAGCCCACGCAGGGGGCAAUGCCGGCCUUUGCGUCCGCGUUUCAGCGCAGGGCGGGUGGAGUCCUCGUAGCGAGCCACCUUCAAUCAUUUUUGGAAGUCUCGUACCGGGUGCUGAGACAUCUUGCGCAGCCGUGAAGCGCUGCCUUCUGCGGGGCUUGCCUUCUGGCCAUGCCCUUCUUCUCUCCCUUGCACCUGUACCUCUUGGUCUUUGAAUAAAGCCUGAGUAGGAAG
B2: G-CSF Gen 1: G-CSF mRNA SEQ ID NO: 6, Cap1, fully modified with 5-methylcytosine and pseudouridine (nucleic acid, listed as Homo sapiens)
chain: GGGAAAUAAGAGAGAAAAGAAGAGUAAGAAGAAAUAUAAGAGCCACCAUGGCCGGUCCCGCGACCCAAAGCCCCAUGAAACUUAUGGCCCUGCAGUUGCUGCUUUGGCACUCGGCCCUCUGGACAGUCCAAGAAGCGACUCCUCUCGGACCUGCCUCAUCGUUGCCGCAGUCAUUCCUUUUGAAGUGUCUGGAGCAGGUGCGAAAGAUUCAGGGCGAUGGAGCCGCACUCCAAGAGAAGCUCUGCGCGACAUACAAACUUUGCCAUCCCGAGGAGCUCGUACUGCUCGGGCACAGCUUGGGGAUUCCCUGGGCUCCUCUCUCGUCCUGUCCGUCGCAGGCUUUGCAGUUGGCAGGGUGCCUUUCCCAGCUCCACUCCGGUUUGUUCUUGUAUCAGGGACUGCUGCAAGCCCUUGAGGGAAUCUCGCCAGAAUUGGGCCCGACGCUGGACACGUUGCAGCUCGACGUGGCGGAUUUCGCAACAACCAUCUGGCAGCAGAUGGAGGAACUGGGGAUGGCACCCGCGCUGCAGCCCACGCAGGGGGCAAUGCCGGCCUUUGCGUCCGCGUUUCAGCGCAGGGCGGGUGGAGUCCUCGUAGCGAGCCACCUUCAAUCAUUUUUGGAAGUCUCGUACCGGGUGCUGAGACAUCUUGCGCAGCCGUGAAGCGCUGCCUUCUGCGGGGCUUGCCUUCUGGCCAUGCCCUUCUUCUCUCCCUUGCACCUGUACCUCUUGGUCUUUGAAUAAAGCCUGAGUAGGAAG
modifications: Cap1, 5mC/pseudouridine modified
B3: G-CSF Gen 2: G-CSF mRNA SEQ ID NO: 6, Cap1, fully modified with 5-methylcytosine and N1-methylpseudouridine (nucleic acid, listed as Homo sapiens)
chain: GGGAAAUAAGAGAGAAAAGAAGAGUAAGAAGAAAUAUAAGAGCCACCAUGGCCGGUCCCGCGACCCAAAGCCCCAUGAAACUUAUGGCCCUGCAGUUGCUGCUUUGGCACUCGGCCCUCUGGACAGUCCAAGAAGCGACUCCUCUCGGACCUGCCUCAUCGUUGCCGCAGUCAUUCCUUUUGAAGUGUCUGGAGCAGGUGCGAAAGAUUCAGGGCGAUGGAGCCGCACUCCAAGAGAAGCUCUGCGCGACAUACAAACUUUGCCAUCCCGAGGAGCUCGUACUGCUCGGGCACAGCUUGGGGAUUCCCUGGGCUCCUCUCUCGUCCUGUCCGUCGCAGGCUUUGCAGUUGGCAGGGUGCCUUUCCCAGCUCCACUCCGGUUUGUUCUUGUAUCAGGGACUGCUGCAAGCCCUUGAGGGAAUCUCGCCAGAAUUGGGCCCGACGCUGGACACGUUGCAGCUCGACGUGGCGGAUUUCGCAACAACCAUCUGGCAGCAGAUGGAGGAACUGGGGAUGGCACCCGCGCUGCAGCCCACGCAGGGGGCAAUGCCGGCCUUUGCGUCCGCGUUUCAGCGCAGGGCGGGUGGAGUCCUCGUAGCGAGCCACCUUCAAUCAUUUUUGGAAGUCUCGUACCGGGUGCUGAGACAUCUUGCGCAGCCGUGAAGCGCUGCCUUCUGCGGGGCUUGCCUUCUGGCCAUGCCCUUCUUCUCUCCCUUGCACCUGUACCUCUUGGUCUUUGAAUAAAGCCUGAGUAGGAAG
modifications: Cap1, 5mC/N1-methylpseudouridine modified

Legend:
neutrophil count = assay: Example 41 intravenous administration of lipoplexed G-CSF mRNA, neutrophil count; format: in vivo; settings: mice IV, 10% lipoplex, 50 ug at days 0, 2, 4; day 5
Experimental: Neutrophils were measured at days 1, 5 and 8. Controls included non-specific mammalian RNA or the formulation buffer alone (F.Buffer). The mice were bled at days 1, 5 and 8 to determine the effect of mRNA-encoded human G-CSF to increase neutrophil count. The dosing regimen is shown in Table 64 as are the resulting neutrophil counts (thousands/uL; K/uL).

Female BALB/C mice = assay: In vivo detection of innate immune response: human G-CSF and mouse IFN-alpha in serum after I.M. injection; settings: for IFN-alpha expression: mouse IFN-alpha in serum, 200 ug/mouse mRNA (R848 75 ug); for IFN-alpha expression / G-CSF protein: I.M., 8 hours after dosing; for PC Ratio: Protein:Cytokine ratio, G-CSF / IFN-alpha in mouse serum; for G-CSF protein: human G-CSF in mouse serum, 200 ug/mouse mRNA (R848 75 ug) in 5% sucrose
Experimental: Blood is collected at 8 hours after dosing and using ELISA the protein levels of G-CSF and interferon-alpha (IFN-alpha) is determined by ELISA and are shown in Table 81.

[1] = Stability of modified RNA on storage (gel electrophoresis); format: physicochemical
Experimental: Stability experiments were conducted to obtain a better understanding of storage conditions to retain the integrity of modified RNA. […] After the mRNA had been stored for 0 hours, 2 hours, 6 hours, 24 hours, 48 hours, 5 days and 14 days, the mRNA was analyzed by gel electrophoresis using a Bio-Rad EXPERION′ system. The modified, unmodified and lipoplexed G-CSF mRNA was also stored in RNASTABLE® (Biomatrica, Inc. San Diego, Calif.) at 40° C. or water at −80° C. or 40° C. for 35 days before being analyzed by gel electrophoresis.
mRNA samples stored at 4° C., 25° C. and 37° C. were stored in 1× TE buffer or the formulation buffer (150 mM sodium chloride, 2 mM calcium chloride, 2 mM phosphate, 0.5 mM EDTA at a pH of 6.5). The mRNA stored at 4° C. was stable to at least 60 days in both the TE and formulation buffer. At 25° C. the mRNA in formulation buffer was stable out to 14 days and the TE buffer was stable out to at least 6 days. Storage of mRNA in the formulation buffer at 37° C. was stable to 6 days compared to the TE buffer which was stable only until 4 days.

mice = assay: In vivo cytokine expression study (serum IFN-alpha); settings: mouse serum; I.M. 200 ug mRNA; after 8 hours
Experimental: After 8 hours serum was collected from the mice and analyzed for interferon-alpha (IFN-alpha) expression.

[2] = system: female Sprague Dawley rats; assay: In vivo delivery of modified RNA: G-CSF protein in rat serum (I.M.); settings: I.M. 400 ug in 100 ul, 5% sucrose, 8 hours after injection
Experimental: Protein production of modified mRNA was evaluated by delivering modified G-CSF mRNA or modified Factor IX mRNA to female Sprague Dawley rats (n=6). […] Blood was collected 8 hours after injection and the G-CSF protein level in serum was measured by ELISA.

[3] = system: Human primary foreskin fibroblasts (BJ fibroblasts); assay: Innate immune response in BJ fibroblasts, repeat transfection: cytokine response; format: cell-based
[4] = 250 ng transfected daily for 5 days, 6 hours

Row | Molecule | PC Ratio (Female BALB/C mice) | G-CSF protein (Female BALB/C mice) | IFN-alpha (mice) | G-CSF protein [2] | IFN-beta [3, 4] | IL-6 ([3]; daily transfection, 6 hours) | IFN-beta ([3]; daily transfection, Day 1) | IL-6 ([3]; daily transfection, Day 1) | IFN-beta ([3]; daily transfection, Day 2) | IL-6 ([3]; daily transfection, Day 2) | IFN-beta ([3]; daily transfection, Day 3) | IL-6 ([3]; daily transfection, Day 3) | IFN-beta ([3]; daily transfection, Day 4) | IL-6 ([3]; daily transfection, Day 4) | IFN-beta ([3]; daily transfection, Day 5) | IL-6 ([3]; daily transfection, Day 5) | further results
1 | B1 |  |  |  |  |  |  |  |  |  |  |  |  |  |  |  |  | increase in neutrophil count above control (neutrophil count): no pharmacologic effect; IFN-alpha expression (Female BALB/C mice): robust cytokine response; freeze/thaw cycles tolerated [1]: 12 cycles
2 | B2 | 40 | 356.5 pg/mL | 8.867 pg/mL | 19.37 pg/mL | 0 pg/mL | 3396 pg/mL | 38 pg/mL | 3870 pg/mL | 1125 pg/mL | 16341 pg/mL | 100 pg/mL | 25983 pg/mL | 75 pg/mL | 18922 pg/mL | 213 pg/mL | 15928 pg/mL | IFN-alpha expression (Female BALB/C mice; listed as 5mc/pU modified G-CSF mRNA): low but detectable cytokine response; IFN-alpha expression (Female BALB/C mice; listed as GCSF mRNA 5mc/pU): 8.87 pg/mL
3 | B3 | 748 | 748.1 pg/mL | 0 pg/mL | 64.72 pg/mL | 0 pg/mL | 3337 pg/mL | 0 pg/mL | 3733 pg/mL | 150 pg/mL | 974 pg/mL | 213 pg/mL | 4972 pg/mL | 1400 pg/mL | 4122 pg/mL | 350 pg/mL | 2906 pg/mL | IFN-alpha expression (Female BALB/C mice; listed as 5mc/N1pU modified mRNA): no detectable IFN-alpha; IFN-alpha expression (Female BALB/C mice; listed as GCSF mRNA5mc/N1pU): 0 pg/mL
